Test: label from the status in PepcDB records
With “MWTDSREALSDLQLGECERVLDVGCGTGELTRVLREETDGTVVGLDADTDLLAAAGDPTVCGDATQLPFDDDSFDLVVCQALLINLPDPEVAVREFARVATDRVAAIEPNNAAVTVESTVDAEPMLARRARRLFLDGVRTDVTLGSDAADVFSDAELTVVSTTQYDQEQQIEPPYDDAAMQAARRKATGTGLAHDRETILNGEATPAEYDALRERWRSMGRDVVEQMQDEAYERHETVPFFVTVGEIP” the protein production was “failed”.
For “MWVDGMAKVVEVGRICVKTRGREAGRKCVIVDIIDENFVLVTGPKSLTGVRRRRVNIDHIEILDKKVDIQKGASDEEVLKALEEAGLADFMREPVRIARITPFTLLEHHHHHH”, the protein production was “not failed”.
For “MWVRVPPPAPFSIFLSPGDDIVKRRKSTRTSSFGVKGRESHDSSPFYSRAIYSNFSLPKPSEEDLIENPLPENLLDKVIEGDAREVLKKIPDCSIHLMVTSPPYNVGKEYDEDMTLDEYLEFIEEIMKEVYRVLVWGGRACFNVANLGRKPYIPLHAYLIHLFEKIGFLIRGEIIWDKGEAVSGSSTAWGSWMSPVNPVLRDQHEYIIVMSKGDLKRRKPSDREAKSTITREEFLEFTRSVWKFPPESAKRVGHPAPFPEELPYRCIQLYTFKGDVVLDPFAGVGTTCVAAVKTGRHFVGIEINPEYVKKAEERVKDILSKPTLFEDHC”, the protein production was “failed”.
For “MYAIAEDTLPARVLKELLLYRRRYPEHRQSASEADEIRRIEQVQLPRIAAFIEAGEPIEFVLPAFPAKSPNPGKVLDSRPDMAERLSLSFLNHLCQRIQLFYAPGAKITVCSDGRVFGDLVRIGDAHISAYQDALRLMIEEIGATHIGVFNLEDVRAFEAQRDNHEQLRQLLIGGYAEPLESIRETLLASEEGLLLYRAITRFLYEDGLTPDYQGSKTALQRDAKERAYGVIQRSWAWGALLADQFPRAIRLSIHPQPADSLKFGIHMMPTRDDWLTPWHGVAVNTEDRFVLMKRSEVLELGGELVQINGQPSHYRLPARAARRAAVALEHHHHHH”, the protein production was “failed”.
In the case of “MYALIHHGRRLVQLQKLSNFRVSVQNGSALSNSFSFASVADATLIDSLKGNNFTVSYLVDSLGLTTKLAESISKKVSFEERRNPDSVLSLLTSYGFTKSQISSIITIYPRLLALDAEKSIAPKLQSLQSRGASSSELTQIVSTVPKILGKRGHKSITVYYDFVKDIIEADKSSSYEKLCHSFPQGNKKNKIRNISVLRELGVAQRLLFPLLISDGQPVCGKERFEESLKKVVEMGFDPETTKFVEALRVIYRMSDKTIEEKVNVYKRLGFGVADVWAIFKKWPSFLSYSEKKITHTFETLKSCGLLKHEVLLLLKKHPKCICSSEQKIVNSIETFLGLGFSRDEFAMMVKRYPQCIDYTAETVKKKTEFIVKNMNWPLEALVSIPQVFGYSLEKRTVPRCNVIKTLISKGLMKDGSEAPPMSSVLTSTDQAFLRRYVMKHDKLAPELMAIFTGENGK”, the protein production is reported as “failed”.
In the case of “MYCDHFGFSEHPFALTPNPAFLFLSSRHQEAFAHLLYGIDTRAGFIELSGEVGTGKTTVIRTFLNQLDPETHRTALVFNPTVSPLGLLQGIIREFGLPGTSTEKSELLETLNRFLLDENRAGHTVVLVIDEAQNLSPEVLEQIRLISNLETERDKLIQIVLVGQPELRHLLARQELRQLDQRITVRYHLEPMGLDDTKNYIRHRIRIAAGGREPVIFSAGAVKKIFGFSGGLPRLINAACDRALLLAYTTEAREVSPAMAAAAIADVATEARPPSPSRRFAVAAALILVAALGAGTFAVTRKGGESLPSASPPPTEPAASGEQPLKRTAALAGLAAVPEKDNLSAAVNTILRSWQAPPVASSPSPADLRSLARERGLTVTELSGTLNDLARLDTPALLHITLPQGGKRLVALTSLDKGHIGIDPPIAGHSTLTGGELSTLWSGRASVIWKNFHGIPSRLKPGGRSKAVGQLQELLKGAGYYAGRISGTYDTVTQEAIRSFQTAEGLDADGRTGEKTLLLLYRRAGGFFPPGLTQGKTAARTEAGDRSRGKVAQTRSNGEQSRLEHHHHHH”, the protein production is reported as “failed”.
For “MYDCSHGAGSSQSPAAEPGPTPRRRHTIHRLAHNDPVNDLDFLLTPEGRALLDEVRDTDPVRELAVATRLRRTHPAELVSAALGQARLRQRAVAKFGAEDAGRMFFTPNGVEQSTRASVAAYRAGRFAALGVASVADLCCGIGGDAIALARAGIRVLAVDRDPVTAAAARANADALGLAGLIEVREADVTEVDTEAYDAVFVDPARRGGRGRIFDPEAYSPPLSWAVRAARTASRAAALKVAPGIPHEAVPEDAEAEWISDGGDVKEAVLWFGAGAAPGAVRATLLPGPRTLPGTGLPDPEVRTPGRYLYEPDGAVIRAHLVAEVAAQVGGGLLDATIAYVTADELLPTPYATAYEITDRMPFNVKKLKALLRERGVGTLTVKKRGSAVEPEELRRKVKPQGPNSATVFLTRVAGAPTMLVGHPAR”, the protein production was “failed”.
In the case of “MYEAGLAEGESAYGHGGYISVPELPAGVAVRNSRRPDIIQESSYLRILAPAGGWLAAATLEKLADCAETYGRGLVHLTSGGTIEIYTGREQMLPLVRELNSGGLDVGSTGDDLRCLTACCGPVRCEHALVDAPALATYLGQRFIDDQQYPGYPQKVKSAVAGCPNDCIRAMMQKDHSFIGVYRDWPMVDGEMLAAWREKGGDLNGLLAACPAGALTLVGDTLEVDKERCWRCMACINYCPAIRPGRERGVAWVAGGKYGHRGPQGPMVGFVLVPFIPVADDDYTAVGDIFGAFLEFWADNAKKKERVGDFIARVGPLKILRELGLEAQPQILLSPKRNVY”, the protein production is reported as “failed”.
In the case of “MYEPGTEQINCNGRLIELPTLEVVRPAPKMPSDANIDWLLHIYFTRREFTRCRRLIERELNRHLNPEYLYFVQGLIDREEGNHIEALRHLQKSAELNPRNIETYKEIGRTLYIMGRFSQALGVFREAEQRSSRQDHEIYHYLGELLYRAATTQSQKDVASQQQDEARTYFELAVQSGRKLESYVRLAELYRKDKQYQKAIEILENCLHLTPENSEVLIEISVLYLKINETQKAHDRLAEVVSIERKCSPKGLLAFGAILQSRNDIDGALSKYSQIANAEPEIAELWNNIGLCFFKKQKFIVAISSLRKSVWLSPLNYNALYNLSLIYIASEQYASAFHTLAAAINLRKDNAECYMLLGLCLRKLDDMENAFVALERASSMATGQQGAGRNPLVVLNFALFCYETGRLALSTEQYNRFMSQAQDLLLPTEYKFQATKLKSLLRISNQGNGILLDSADMGESDLGHNRATELLPDELPLEVNAVVSQN”, the protein production is reported as “failed”.
With “MYESANVSDDADRTAFRRAEKKYKLYYEQDSKFSRKKKLPKPIDLSELLDFNLISQNFNNDGVLPDGIRVSKVDSSPVFCIDNRPGFYFIPDALSLKEQCKWIKESLTSFPQPPNRTNHNAIYGPIDDLFDSAKENKVLVQDDLTNNKWKFYEEVDIEKATRSSCKSVSASVLLRKLRWSTLGLQFDWSKRNYDVSLPHNNIPDALCQLAKTHAAIAMPDGEEFRPEGAIVNYFGIGDTLGGHLDDMEADWSKPIVSMSLGCKAIFLLGGKSKDDPPHAMYLRSGDVVLMAGEARECFHGIPRIFTGEENADIGALESELSHESGHFFAEYIKTSRININIRQVF” the protein production was “not failed”.
For “MYFTEFLTVALIHLLAVASPGPDFAVVVRESVTHGRRAGTWTALGVGCAIFLHVGYSLLGIGLIVSQSIVLFNALKWLAAAYLLYIGYKALRAQPAKPAADDLHKEAGVRTARGAFTSGFVTNGLNPKATLFFLSLFTVVINPHTPLAIQAGYGVYLAVATAVWFCLVAMLFSQQRVRAGFARMGHWFDRTMGAVLIAIGVKLAFTEMH”, the protein production was “failed”.
In the case of “MYGEGDFYTIKSKRDYEFYLEADRLALGKNCKKPRLIGDDIWKFQRLLRQAEYYSNCQNSLLHKLYLKYILFRFHRMSIRLGFSIPINVFGPGLCIAHRGTIVVNKGARVGENCRIHACTNIGSGRDNIFLAPKIGNGVYIGPGAKIFGSVEIADNIAIGANSVVNRSFYERGISIAGVPAKKISNKGSDGMVIAATKTVSVPVSQETILEHHHHHH”, the protein production is reported as “not failed”.
With “MYGIQTSASLPLTRPQALETQAAAPQSDAPDASAGQTRAAPQGSAAPALAAARAKADELGQAAREVRASVERQTAYETRLAAQRSAAAFSGGEPPQARREAPGAELDEARNAQTVSARLFEGNLKGVAQSGHAMSAEQKQALQSGLDDVFADAPPQARSAGAPMLYSANAAAGQGMADSDLWDMISDQIGKIKDNYLGVYENVVGQYTDFYKAFSDILSQMANWIKPGGDGNKVKLNVDALKAALEKLKKDFSLGDNLDNKKAVLFPAQSKDGGIQGGSESDARKWAKEMGLPDAPPPGFSCVQKAADGNWVVVVDMTPIDTMIRDVGALGSGTELELDNAKFQAWQSGFKAQEENLKNTLQTLTQKYSNANSLFDNLVKVLSSTISSCLETAKSFLQILEHHHHHH” the protein production was “not failed”.
With “MYHILFRRKSIVPAYNESTTIVSSIDSLLHLDYEAYEIIVVDDGSSDNTSDVLKEEFALMKISNTIDSIIATQTCKDVFQRQVGKVKLTLIVKENGGKGDALNMGINAANYDYFLCLDADSMLQVDSLSQISKSIQVDPTVIAVGGLVQVAQGVKIEQGKVASYRLPWRIIPCAQALEYDSSFLGARIFLDYLRANLIISGAFGLFKKDLVKAVGGYDTQTLGEDMELVMKLHFFCRNNNIPYRICYETDAVCWSQAPTNLGDLRKQRRRWYLGLYQCLKKYKSIFANYRFGAVGSISYIYYILFELLTPFIECFGIVIIFLSLLFNQLNIPFFISLVSLYIFYCVLITLSSFLHRIYSQQLVIGILDIVKVFYIAVFRYLILHPVLTFVKVASVIGYKNKKMVWGHITREKQMKDFETSVT” the protein production was “failed”.
In the case of “MYIPKYFKVTNAEEIWNFVQENSFGTVVTTEQGKPIATHLPLGFNKKDDHYYITGHFAYGNPQWRTFEACEDVLVMFQGPHAYISSSWYSRENVPTWNYQAVHMYGKASMLEKDELAEELTIMLEQKTPTQAFSVLWDKLSPKLLESELKGIVGFKIKVEDIQAAYKLSQNRNETDYMNVIEQLQNEENPNAKQMAELMEDKLKKQI”, the protein production is reported as “not failed”.
For “MYKATVIIKLKKGVLNPEGRTIQRALNFLGFNNVKEVQTYKMIDIIMEGENEEKVKEEVEEMCKKLLANPVIHDYEIKVEKIE”, the protein production was “not failed”.
For “MYKDKVAVIMSVYKSDNPIDFNVAVNSIIRQTLKCDIFIYQDGPVSRELKSAINRFRKFNNIFIFVSEENKGLAYALNYLIDSCLLNNYQYIARMDSDDISHKNRMSIQVNFLEDNSDIHVVGSYCKEFGADCSLAEKKLPITHNDLLNFSITRCPFIHPSVMFRTSIFYNGLRYPVNTKYTEDMAFWFILLDLGYKFENIPETLIDYRMTENTVLRRRGFDKALSEVFIRFKYMIKFKKITVKNVSFIIGRFVFHLLPPNAIKYLYKKMR”, the protein production was “failed”.
In the case of “MYKEGACLYRNPLRSKSDVKDWRMEGGGQISFDDHSLHLSHVQDEAHFVFWCPETFPDGIIVTWDFSPIEQPGLCMLFFAAAGIRGEDLFDPSLRKRTGTYPEYHSGDINALHLSYFRRKYAEERAFRTCNLRKSRGFHLAAMGADPLPSPDDADSPYRMKLIKDKGYVHFSINGLPILEWMDDGSTYGPVLTKGKIGFRQMAPMKAVYRDFAVHQAVRR”, the protein production is reported as “not failed”.
With “MYKHILVPVDLNEQGFADKAVQLAVWHAKHSNAEIHLLNVLPGIHMSMVATYFPKDAAAQMKNDVRAQLKAFAEKHIAEEVVYKLHIAEGKPYATILDYAERLGADLIVMPSHKRSRIDKVMLGSVASKVVENSPINVMVVKPQG” the protein production was “not failed”.
In the case of “MYKLGVFLLATLLSANTQKVSDIAKDIQHKETLLKKTHEEKNQLNSRLSSLGEAIRSKELQKAEMERQMIALKKSLEKNRNESLAQEKVLTNYRKSLDHLQKKRSFLQKRVFDTLLQDFLFSQALKGQNLASSNDVVLQVAFENLHQSTLSKMSQLSQEEKELNTQALKVKNSIQKISSIIDEQKTREVTLKSLKTEQDKLILSMQKDYAIYNQRLTLLEKERQNLNALLKRLNIIKQNRENEEKVSLKKSSQALEVKQVASSYQNINTTSYNGPKTIAPLNDYEVVQKFGPYIDPVYNLKIFSESITLVSKTPNALVRNVLDGKIVFAKEINMLKKVVIIEHKNGIRTIYSQLDKIAPTIKSGMRIQKGYVLGRIDQRLGFEVTMREKHINPLELIARN”, the protein production is reported as “failed”.
With “MYKTIIMPVDVFEMALSDKAVRHAEFLAQQDGVIHLLHVLPGSASFTMSRFTADLRRFEEHLQHEAETRLQTMVSHFSIDPSRIKLHVRFGSVRDMVNELASEINADVVVIGSRNPSISTHLLGSNASSVIRHAHIPVMVVR” the protein production was “failed”.

From a protein production outcome set (Wang et al. 2014)
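Also: failed if final PepcDB status was selected cloned or expressed and not failed if soluble or beyond.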
